Assay: soluble on expression in E. coli; label from the status in PepcDB or PDB records

| Sequence | soluble on expression in E. coli |
| --- | --- |
| MENQPKLNSSKEVIAFLAERFPQCFSAEGEARPLKIGIFQDLVERVGGEMNLSKTQLRAALRLYTSSWRYLYGVKAGAIRVDLDGNPCGELEEQHIAHARQQLEEAKARVQAQRAAQQAKKREAAAAAGQQDEGVRRERKPRPQQPRRKEGAEQRKPRPVAAKAPREERLTPVSDVSVLTVGQALKVKAGNNAMDATVLEITKDGVRVQLTSGMSMIVRAEHLVF | not soluble |
| MENQTTDLENMVGASRAGLTRRGFISAGALCGAAMFLGGNILSRTVLANSVSAASGALLGFESIPTATADSISLPKGYTSSVLISWGQPLQANGPAFDPSGKGTAQAQEVQFGDNNDGMCLFPMPGHKDRALMAINNEYTNYRYLFDHGKEPQSAEEVQKALAAEGVSVIEVQQKQGKWQFVQDSRYNRRVHGNTPIKLSGPAAGHDWLKTDADKGGTHALGTFQNCSSGQTPWGTYLTCEENFTDCFGSSNPEQKFDAGMKRYGVVAASKEINWHPHDPRFDVAKNPNEVNRHGWVVEIDPFDPKSTPVKRTALGRFKHENAAFTQTKGGRAVVYMGDDERGEFIYKFISRDKIDHQNPKANRDLLDHGTLYVAQFDAGDSNPDHPKGKGQWIELTHGKNGLDAAASFNNQAEVLIHARLAASVVKATRMDRPEWIVVSPKDGQVYCTLTNNIKRGDEGQPVGGPNPRAKNQYGQILRWSEEGSNASAMAFDWDLFVVAGNPAVHAGTPQAGSSNINAQNMFNSPDGLSFDEAGRLWIQTDGDSSNKGDFAGMGNNQMLCADPASGEIRRFLVGPVGCEITGISFAPDYKTMFIGIQHPGENGGSTFPEHLPNGKPRSSVMVITREDGGVIGALEHHHHHH | soluble |
| MENVEKRLIQLFTTYLNKAKHHMQGGSDMPNELVIGLHCRGEFESHRSWMQPRVQRGLEERMLFSSHKRAQIYKEAATSSLVAASSAPGEVREG | soluble |
| MENVSDDRFAEMVWEAVSGGATLKDVHGIPQDMMEGLYAHAYDFYHKGRLDEAETFFRFLCIYDFYNPDYIMGLAAVCQLKKQFQKAVDLYAVAFALSKNDYRPVFFTGQCQLFMRKAAKARQCFELVCEQSGLEHHHHHH | not soluble |
| MEPIDIARLEEAVVSFYRSNSQNQAITHEWLTDAEASPQAWQFSWQLMQLGKSQEVQFFGAITLHSKLMKHWHEVPPENREELKQKILESIVRFAGGPKIVLNRLCISLGAYIVHMLGEWPGAIEEVINTFQNQRMPNVSADVQLWIMLEVLTAIPEEAQVIHTSVKRVVLRAEIAKRVQLVIHTVERYLKLQMNRVWDAEAYSNMNRAVKCVGTWIKNIGYTIEGCVTITAVLLEVVHKCYWPCIHAGDGCMTADENELAESCLKTMVNIIIQPDCHNYPKTAFVLIKMFLDSLSEITKTEWKRENDNEDIIVHIYMLFVSSVERHSTLLLSGITSADPELSILVHRIVQEILHCTDKPGIYPVEESCSTMALAFWYMLQDEVFAMSNDEQKHKCWEYIKPLYAHLTRILVRKSEQPDEKSLAKWSSDDLECFRCYRQDISDTFMYCYDVLNDYILEILAAMLDEAIADLQRHPTHWTKLEACIYSFQSVAEHFGGEEKRQIPRLMRVLAEIPYEKLNVKLLGTALETMGSYCNWLMENPAYIPPAINLLVRGLNSSMSAQATLGLKELCRDCQLQLKPYADPLLNACHASLNTGRMKNSDSVRLMFSIGKLMSLLRPEEIPKYLDIIVSPCFEELQAICQADSKTPAARIRTIFRLNMISTLFSSLNTDVDEQATDQPIVQPVLLVMQRTMPIFKRIAEMWVEEIDVLEAACSAMKHAITNLRSSFQPMLQDLCLFIVASFQTRCCAPTLEISKTAIVMFFKDEGCKPLMQQLLREFIQHSFKLFESTPEQNFSNISDTMETFFGCLTQIIKKIPQVLEDKTLAYDRLVFYAQRGMTLPESGAIRNSIQFLTHFVMQSRNHAHVTEVVLATGEQTLYTAMMCVGYLTPRSQVDKFADILLAMNRKYAAEMAVWMKSLMSTPNFPTQLITDADKTRYTALIIKEKVNKRLLQQHLSEMAMKTRGLTEKFQ | soluble |
| MEPYVGIVIFELAKSNTSPEENNSFFREDFYIVYADSEEAAHKLVEKRAHEEETPKNAAQDSGPTVTLRHIIDVAPALYGYVDKDCNLYSRHFASLEDYARFEMMLGGKDPLSH | soluble |
| MEQFRNIGIIGRLGSVQVLDTVRRLKRFLLDRHLHVILEETIAEVLPGHGLQTSSRKMLGEVCDMVIVVGGDGSLLGAARALARHNVPVLGINRGSLGFLTDIRPDELEVKCAEVLDGHYLVENRFLLQAEVRRHGEAIGQGDALNDVVLHPGKSTRMIEFEIYIDGQFVCSQKADGLIVATPTGSTAYALSAGGPIMHPKLDAIVIVPMYPHTLSGRPIVVDGNSELKIVVSKDMTIYPQVSCDGQNHFTCAPGDTITVSKKPQKLRLIHPLDHNYYEVCRTKLGWGSRLGGGGDLEHHHHHH | soluble |
| MEQKNVRNFCIIAHVDHGKSTLADRLLEYTGAISEREKREQLLDTLDVERERGITVKMQAVRMFYKAKDGNTYKLHLIDTPGHVDFSYEVSRALAACEGALLLIDASQGIEAQTVANFWKAVEQDLVIIPVINKIDLPSADVDRVKKQIEEVLGLDPEEAILASAKEGIGIEEILEAIVNRIPPPKGDPQKPLKALIFDSYYDPYRGAVAFVRIFDGEVKPGDKIMLMSTGKEYEVTEVGAQTPKMTKFDKLSAGDVGYIAASIKDVRDIRIGDTITHAKNPTKEPVPGFQPAKPMVYAGIYPAEDTTYEELRDALEKYAINDAAIVYEPESSPALGMGFRVGFLGLLHMEIVQERLEREYGVKIITTAPNVIYRVKKKFTDEVIEVRNPMDFPDNAGLIEYVEEPFVLVTIITPKEYVGPIIQLCQEKRGIQKNMTYLDPNTVYLEYEMPLSEIIVDFHDKIKSISRGFASYDYEFIGYRPSDLIKLTVLINKKPVDALSFIVHADRAQKFARRVAEKLRETIPRQLFEVHIQVAKGGKVIASERIKPLRANVTAKCYGGDVTRKKKLLENQKEGKKRMKQFGKVQLPQEAFLSVLKVE | soluble |
| MEQPEKNIKLAYDGEIHLAVGASKTEKKWKNRQMSWSDFTQRLKTPTVTQETVEDYKKMPKSKQGEVKDVGAFIGGWLKEGRRKRGNTQQRSLVTLDADSTTLDFWDDVQLLFDHAAAVYTTHSHLVKGPRYRLIIPLSRPVTAEEYEPLARKLAEFFGMDNFDDTTYQAERLMYWPSHSIDGEYFTDNIDLPWVDPDEILSQYEDWRDASFWPESSRGHSIRERQAKKAGDPLEKKGIVGAFCRTYDIISAIETFLPDIYGSTGREDRWTFLEGSTSGGLVIYDDKFAYSHHGTDPVGDQLVNAFDLVRIHLFGDLDEDVKPTTRIDRYPSFKAMREFAMEDKQVKTLIQSEKLSQALEDFDGELDELEEDDKDWFTKLDLEIDEYGQIMASAKNLEVIMLNDPNLKKKIFMNSFSNRIEVKDNLPWRKLDRDKMWKDSDDAGLRVYIEKIYGIVNRGKIDDALVQEIERNSYDPVKEYLESLHWDGVPRVETLLIDYLGAEDTPFIRVVTKKFLTAAVGRIFVPGIKFDYMLVTSGPQGIGKTLLPAKLAGDWFSNSLEGVTGKDSYEALQGVWIMEMGELSATKKADIEATKHFISKQEDIFRVAYGRHKSYFKRRCVFWGTTNDNEFLRDKTGNRRFWPVDVGIQPIKNKVWEMTDETRNQIWAEAVELWQAGEPLYLTDEQEKLALEAQEMHTETSSMEGEILEYLEIPITEDWYKRSKQERREYIQGWGTDIQEEGEIVRNKVCIAEVWNELYNGDSKNIHPAKAAEIRQVLSHLSGWEKNSKGNKGRLRFGPGYGVQVAYLRVTP | not soluble |
| MEQQRDFDSALAWHRKAKCAGKAGSADVLPGHDKDANAARVVELCAMCADCPVFEQCGREAIAEPFLTLGVVRAGIPDTTQSKSKQKKLLQQVIDEGVPPPVALIMALKDRKGYEGALVGLAGLYEAYRGVYV | not soluble |
| MEQSIFRDEKGDCPIVYLAGTLISIGSKPSARYGVCWGAGHAKNEGGPVAGSQTSLRAELTALRRTLEIALAEDITKLIIVFPSKMLGEQLEVWERRPEQHASFENSDILYRVEQLFGEAEARMYFSIDLPTPPDPRAHGYTKALQLARTMLVASRISRNSQITTVAIFAICEKEGKCDALAKYGVYWGQDDHRNEAGLVEDGQTSLRAIMCAVRSALRTAAMHGLKRVHFLTRRIDIINIIKKLAKGEEEDSPGKRNGAIFSDCSRLRSELLDISVKLVQKDVPCVELDRAEAITRGATKKLKKRDNEYERLDRQLLMIESSSSASSPESQPKIENIGDKCPTAVILNLLVRPKFGHSKVSYAVYWGENDEKNERGPVNMRAHAFQADLYAAMCALKKARSKNIRKLHLLTTSEYFKNWMENVQKKNELINDRYDVMMEFQLLLQNFESVTIEVVNSSTQGARRKMYEDAQTFFAGRNESIQKQRSIEDIQLEDPIENNIVEAESVNPESSNQIQVVYVGGACRGRGYANALAVYSVVWPIGEYGCSQGPVTGIVNNIRAKLAAVKSALQQAEQLGIASLIIRTNDQMVHDTLILQNSPIGNIDLMDDIESYKSRMRFVAYQLTTGDYARGNVVADRLAEVIVESIF | soluble |
| MEQYHKIVLTGSNAETMLIKNIEPVAVKFINNYKGFFYVFKYSKDFPIIDVYINNKIVTENQLNKILQNSGAKYKIYKNSIFNETQGNFGMLGDKYLAEFFKKTNEISLNILNQNFESYNKKIEFALEIMLISAHYNYDSIKKGYLSYASHVNGFFTRWKDPNKIRDIFHKNYLNNKEYLESKVSEIIDNNNRSSLSELSDIITEMKKEMTTDIEKGNLHVFNIELLQKPGERDFLEKSQFHKTILNNPDFSNFMNKDINFLGSRLITVFTYLLIRNLGIQNKDRYLLCYYIYKIIEEKYNIDTLELIRDFGKGRDNNVEDLQRY | not soluble |
| MERFLRLGGLGGNLGTFGANPQDSNQVDTSETVYISSLALLKMLKHGRAGVPMEVMGLMLGEFVDDYTVNVIDVFAMPQSGTGVSVEAVDPVFQAKMLDMLKQTGRPEMVVGWYHSHPGFGCWLSGVDINTQQSFEALSDRAVAVVVDPIQSVKGKVVIDAFRTINPQSMALNQEPRQTTSNLGHLQKPSIQALIHGLNRHYYSIPIAYRTHDLEQKMLLNLNKLSWMDAVSVENYSKCGEQNKEHLKAMLKLAKNYKKALEDEKNMTDQELAIKNVGKMDPKRHIADEVSKMLNDNIVQSLAGMMATTSLQ | not soluble |
| MERIALFIDGANVYAAAKRLGWNFDHRKILEHFAGLGALYNAFYYTAVPWPVDDKQKRFVDALTYMGYTVRTRPLRENTDENGDTSRRASLDIELVTDLLTTESRYDVAVLLSGDGDFERPVEVLRARGKKVIVASIPEMTSAELRNAADEYVDLASIREQVERPGYRLPSEGSGR | not soluble |
| MERKISRIHLVSEPSITHFLQVSWEKTLESGFVITLTDGHSAWTGTVSESEISQEADDMEMEKGKYVGELRKALLSGAGPADVYTFNFSKESCYFFFEKNLKDVSFRLGSFNLEKVENPAEVIRELICYCLDTTAENQAKNEHLQKENERLLRDWNDVQGRFEKCVSAKEALETDLYKRFILVLNEKKTKIRSLHNKLLNAAQ | soluble |
| MERYGYCIFCDDIRTEAGGKLSFIGCYNSAMFVTNEFPLSLPKLCVHFNVFSPADQPYKSLRVRCYLPGEDKPIAEESIEVPALQDQINLLTSLPKDQPMMPFIVVAASLIFSPCEIKSPGMIHVRAVINDSPTELHLGSLAVSSQATPQVALEHGPAAIN | not soluble |
